Test system: K4 kissing-loop RNA reporter
Assay: apparent KD of K4 kissing-loop reporter; higher = weaker reporter binding
Conditions: Eterna round: R107
Protocol: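 RNA-MaP round R107: designed RNA switches with theophylline, tryptophan, arginine or FMN aptamers are transcribed on-chip within common flanks. They are titrated with a labelled K4 kissing-loop RNA reporter in RNA-MaP buffer (100 mM Tris pH 7.5, 80 mM KCl, 4 mM MgCl2), without ligand or with the indicated ligand. Median apparent KD per design.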

[1] = input ligand: theophylline 20 uM
[2] = input ligand: tryptophan 2.4 mM
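Also: bound reporter read as fluorescence of individual clusters on recovered sequencing chips by microscopy, with normalized cluster intensities fitted with a binding model.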

Row | Sequence | apparent KD of K4 kissing-loop reporter (input ligand: FMN 200 uM) | apparent KD of K4 kissing-loop reporter (input ligand: arginine 13.2 mM) | apparent KD of K4 kissing-loop reporter (input ligand: none) | apparent KD of K4 kissing-loop reporter [1] | apparent KD of K4 kissing-loop reporter [2]
1 | GAGAUAGAGGCGGCCGCCACUAGUGAUGUUAGUGAUGUUAGAAAGAGAAUAGAACAGGGAUUAGAUAGGACCGGGCCAGAUGGAG [vvhmullin] | 64.4 nM | 46 nM | 60.4 nM | 62.2 nM | 60.1 nM
2 | AGACCACAAAGUGGUCAGUGUUCGCGGCAGCGAGGACCGGUACGGCCGCCACUCGCGAGUGAUGUUCGCGAGAGCCGCGAACACA [Omei KL Tryp A Exc A v8] | 82.7 nM | 80.9 nM | 82.6 nM | 93.8 nM | 99.6 nM
3 | AAAAUAAGCCAGUGAUGUUGGUAUCCAGAUACCAGCGACGAAAGUCGCCCUUGGCAGCUGUGGACGUACAAAAUAAGUACGUCCU | 194 nM | 107 nM | 143 nM | 266 nM | 126 nM
4 | UGAUAGGACAGAAGGAGCGGAGGUCGUCAAAGACGACCAAUAACGUUGAUAGGAGUGAUGUUCCAGGUAGGUCGCUGUCCUAUCU [ArgBX 29 #SwitchBubble #StaticStem] | 147 nM | 127 nM | 121 nM | 152 nM | 95.8 nM
5 | UACAAACGUAGUGAUGUUACGUACUCUGAUACCAGACAACUCUAAGUCCCUUGGCAGCAGUCAUUUUGCUUAUUAUUUUCUCAAA [JR_ExcTheophyA_Sub018] | 86.5 nM | 102 nM | 92 nM | 98.5 nM | 75.2 nM
6 | CACCUGCCAUAAGGAUAUUCGUCUUUGCGCUUCCAGUGAUGUUGGAGAUCGCAACACAUGGUCAUAGAAGAAGGUAUGGUAUUAA [theeternabot_sameState_KL_FMN_B_35] | 154 nM | 186 nM | 195 nM | 191 nM | 186 nM
7 | GCCCGAAAGGGCCGAUGUGUUUGCGGCGAUCGAGGACCGGUACGGCCGCCACUCGUCGAGGCGUUCAGUGAUGUUGAAAGCAUUA | 334 nM | 279 nM | 352 nM | 354 nM | 626 nM
8 | UUUCCAGAUAAGUGGGAACACUCCAUAACAGAGGAUAUCAGAGCGCUGAGAAGGCUGUUUUACAGUGAUGUUGUAAGUGUGGAGU [FMN A SS t2] | 153 nM | 249 nM | 283 nM | 304 nM | 253 nM
9 | GGAUAGGACUGAGGAUAUGGUAGUGAUGUUACCAAACUGGUUAAACAUGUCAGAAAACUGGCAUGACCAGAAGGCGGUCCUAUCG [FmnBX 27 U10+G76] | 104 nM | 65.5 nM | 72.5 nM | 55.3 nM | 57.2 nM
10 | CGCGCUGCCUGAGGAUAUAGAAACGAGUGAUGUUCGUGGACAAGAGCCAGUGAUGUUGGGUUAUUUCUAGAAGGCAGGCGAUCGU [Exclusion FMN B GF5] | 124 nM | 106 nM | 128 nM | 125 nM | 97.5 nM
11 | UGAUAGGACAGAAGGAGCGGUAGUGAUGUUACCAAAAGGUUAAGGUGUCAAAAGACACCCUGCCAGGUAGGUCGCUGUCCUAUCU | 117 nM | 98 nM | 106 nM | 89.9 nM | 83.4 nM
12 | UGGAGUUGACGAAAAGUCAACUCCUGAGAUACCAGUGACGAAAGUCACCCUUGGCAGCUCACUGCCAGUGAUGUUGGAAAUAAAA [#01 K4 Theophylline A Same State] | 346 nM | 182 nM | 224 nM | 337 nM | 217 nM
13 | UGGAGUUGACGAAAAGUCAACUCCCGAGAAGGAGCGGACGAAAGUCCAGGUAGGUCGCUCGCUACCAGUGAUGUUGGUACAUAAA | 101 nM | 153 nM | 130 nM | 147 nM | 109 nM
14 | UGAUACCAGACUGAUACCAGCUAGUGAUGUUAGCUGAAAUCAGGGUCAAAGACCCUGUCUGGCCCUUGGCAGCAGUCUGGUAUCU [TheoBX 18 #SwitchBubble #StaticStem] | 83.2 nM | 72.3 nM | 76.2 nM | 73.2 nM | 71.2 nM
15 | GGAACUACGACGGCCGCCACUCUGUAUCCCAACGUUAAGGUCCUAACUGCAAGUGAUGUUUGUGCGAGGACCGGGUCUCCCUUGC [theeternabot_exclusion_KL_Trp_B_30] | 258 nM | 213 nM | 272 nM | 218 nM | 217 nM
16 | UGAUACCAGACGGCCGCCACUUCUGCAAGUCAAAGACUUGCUAAGGGAAUCGUCCAGUGAUGUUGGAGGACCGGGUCUGGUAUCU [FiskerMod 2 - Jieux - Exclusion - Tryptophan B] | 1050 nM | 823 nM | 1200 nM | 999 nM | 1050 nM
17 | AUUUUUUUGUCAGGAUAUUAGUAUGCAUUUAGUUUGUUAGUGAUGUUGAUAUUUUGUUUAUGUAUUUAAGAAGGGAUUUAGCGGU [iiikmullin] | 384 nM | 217 nM | 335 nM | 340 nM | 306 nM
18 | UCGAGUUGACGAAGAGUCAACUCGUGUGAUACCAGUGACGAAAGUCACCCUUGGCAGCACUAUGCUAGUGAUGUUGGUAUUUAAG [#08 K4 Theophylline A Same State] | 190 nM | 92.7 nM | 179 nM | 105 nM | 127 nM
19 | GGAUUGCCAGUGAUGUUGGCAUAAACUGAAGGAGCGCGUGAAAACGCAGGUAGGUCGCAGAACCUUGCCAACUGAUCGAAAGAUC [Ex Arginine A K4 29] | 123 nM | 138 nM | 121 nM | 122 nM | 106 nM
20 | AUCACAGUGAUGUUGUGAUAUGGUACAGAUACCAGACUAGUGCUAGUCCCUUGGCAGCUGUACUCAGCAGCACCACUAGCACUCG [Theo A Ex t6b] | 147 nM | 131 nM | 145 nM | 153 nM | 128 nM
21 | CGAGUGAUGUUCGUUUUAAAAUUUUUUUGACAGGAUAUGCGGAAACGCAGAAGGGUCACCUUUGAGUUAAAAGAAAUUAAAUUUU [Ex FMN 16] | 175 nM | 223 nM | 198 nM | 224 nM | 166 nM
22 | UAGUCCUAGUGAUGGUCAUCACGUGGUGGGCGAGGACCGGUACGGCCGCCACUCGACUUUGCAGUGAUGUUGCAAACCGGACAAU [Exclusion - Tryptophan A (Freestyle 19)] | 333 nM | 322 nM | 311 nM | 354 nM | 298 nM

Row | Sequence | apparent KD of K4 kissing-loop reporter (input ligand: FMN 200 uM) | apparent KD of K4 kissing-loop reporter (input ligand: arginine 13.2 mM) | apparent KD of K4 kissing-loop reporter (input ligand: none) | apparent KD of K4 kissing-loop reporter [1] | apparent KD of K4 kissing-loop reporter [2]
23 | AAACAUUGGUCUGAUACCAGCUGAUCGGAAACGAUCUUGCUGGAGUGAUGUUCCAAGUAAAGCCCUUGGCAGCAGACCGAUGAAA [MAT - Same State Theophlline B - Mod of Eli - D19] | 108 nM | 53.3 nM | 72.6 nM | 107 nM | 81.8 nM
24 | AUGUACACGAUAGUGUACUCCUAGUGAUGUUAGGAUAUGCAGAUAUGCAGAAGGAACAAGUCAUCUGACAAUAGUCGGAUGACAA [FmnAX 9 #OpenEnded #K4Early] | 388 nM | 92.5 nM | 119 nM | 125 nM | 94.1 nM
25 | CGCAGUGAUGUUGCGAGUAACUACAGGGAAGGAGCGUGCUAAAGCACAGGUAGGUCGCCCAUGCAGUGAUGUUGUGUAAAAGGGU [Excluson Arginine A GF 13] | 102 nM | 98.6 nM | 106 nM | 118 nM | 90.8 nM
26 | AGUUAUGUUGCGGCCGCCACUGCGCGAGUGAUGUUCGUGGCAUAUAUAAUGUUAUAUAUGCAUCACAGGACCGGGCGGCAUAGCG [Same State - Tryptophan B] | 512 nM | 313 nM | 375 nM | 329 nM | 152 nM
27 | AAACUUGCAGUGAUGUUGCAAGUAGGUGAUACCAGCAUCGAAAGAUGCCCUUGGCAGCACCAAAACAUCACUUAGGUAUCACCAA [(H1)-(H2)-(T1)-(T2)-(H)'-(T)'_Design3] | 191 nM | 192 nM | 210 nM | 234 nM | 175 nM
28 | AUAGAAAAGUGGCACCCUCACUAAAACAGUCGAGGACCGGUACGGCCGCCACUCGCGCGCUUUAGUGAUGUUAAAGCUAUGCAAA | 407 nM | 358 nM | 380 nM | 407 nM | 105 nM
29 | UAAUUUAUCGCAGGAUAUAGCCAUAAACCGGUCCUAAGGGACCUUCUGGGCAGUGAUGUUGCCCGGCUAGAAGGGCGAGUUCACC [Anenlagema] | 115 nM | 105 nM | 116 nM | 103 nM | 105 nM
30 | UUAUCAUCAGCGGCCGCCACUGCAAAUUGGAGUGAUGUUCCAAGCGUGGAUAUUGAAAUUACUAGUAGGACCGGGUUGAUGAAUU [AK 2 Ex Trypt B] | 158 nM | 132 nM | 158 nM | 105 nM | 159 nM
31 | AGGCACGAGCAAGGAUAUCGAGUAGAGUGAUGUUCUGCCUGGGUUGGCGCGGAAGGGCCUUCCCAGCGAGAAGGUGCUCGUGCCU [#2 Same State - FMN A Attempt #10 (HarryS)] | 293 nM | 569 nM | 838 nM | 615 nM | 786 nM
32 | UGAUACCAGACUGAUACCAGCGAGUGAUGUUCGUUGAAAUCAGGGUCAAAGACCCUGUCUCGCCCUUGGCAGCAGUCUGGUAUCU [TheoBX 22 #SwitchBubble #StaticStem] | 690 nM | 704 nM | 829 nM | 320 nM | 785 nM
33 | UUUUAUUAAUUCUUCUAGUGAUGUUAGAUACGAGGACCGGUACGGCCGCCACUCGCUUAUUGGUUUAUAUAUUUUAUAUUCUUUA [JR_SSTryptoA_Sub015] | 293 nM | 319 nM | 330 nM | 400 nM | 264 nM
34 | GUAGACAGACUGCAAGCCUAGUCUACAGACUAGGAUAUCAGGAAACUGAGAAGGAGUCUACUUGCAGUGAUGUUGCAAGAAUAAU [[F]''-[K]'-[F]'-[F1]-[F2]-[K1]-[K2]_Design4] | 146 nM | 126 nM | 121 nM | 111 nM | 119 nM
35 | UGAUACCAGACGGCCGCCACUCCCGUAAGUCAAAGACUUACGAAGAGAGUUGUCCAGUGAUGUUGGAGGACCGGGUCUGGUAUCU [FiskerMod 13 - Jieux - Exclusion - Tryptophan B] | 230 nM | 208 nM | 207 nM | 202 nM | 260 nM
36 | GGUAGCAUGGCGGCCGCCACUCGCUAGUGAUGUUAGCGGGAUGAGACAAAGGACAUAACUUUAUCGAGGACCGGGCCAUGCUACC | 88.2 nM | 66.5 nM | 75.8 nM | 62.2 nM | 92.9 nM
37 | AGAACUGUCUGAGAUACCAGCUAAGGAGUGAUGUUCCUAGCUCCACGAAAGUGGAGCCAUAGCCCUUGGCAGCUCAGACAGUUCA [Omei KL Theo B SS A v6] | 866 nM | 588 nM | 1050 nM | 584 nM | 747 nM
38 | ACUGAAAGAUCUGAUACCAGACUUUUUGUAUUUAUUAAAACUAGUGAUGUUAGUUUAUCAGUCCCUUGGCAGCAGUUACUACAGA [JR_Nu_ExcTheophyB_Sub024] | 91 nM | 106 nM | 105 nM | 103 nM | 95.4 nM
39 | UGGUUUAACUGAAGGAGCGGCAAUUGAUAAGUAAAUAUAGUGAUGUUAUAUAAGAUAGAGAGCCAGGUAGGUCGCAGAGGUAUUU [ExArgB.O] | 145 nM | 147 nM | 141 nM | 143 nM | 141 nM
40 | CGCUGGGCGAGUGAUGUUCGCUCACGUGAUACCAGUGCCAUCCAACACCCUUGGCAGCACGCGGGCAGUGAUGUUGUCCUUGUGG [Exclusion Theophylline A GF7] | 284 nM | 241 nM | 285 nM | 269 nM | 268 nM
41 | AGAUCUGUAACAGAUACCAGAGGACGAUGAUCGGAUAGUGAUGUUAUCUGUCAGUCGUCGCUCCCUUGGCAGCUGUUACAGAUCA [Omei KL Theo B SS B v1] | 176 nM | 147 nM | 174 nM | 135 nM | 157 nM
42 | CGCAAGCAGCCAGUGAUGUUGGCCGCCUUGCGAGGACCGGUACGGCCGCCACUCGAAGGCGGCUACUGGUAAUCCGUCUAACGGA [Lareus] | 84.6 nM | 80.9 nM | 86.8 nM | 68.4 nM | 89.9 nM
43 | GGUGAUGAGCACGAUACCAGCCUCGGAGCCAGUGAUGUUGGCCCAAUUUAAAAUAAGAUAGGCCCUUGGCAGCGUGACGAUGGCU [Rainle] | 727 nM | 727 nM | 711 nM | 466 nM | 643 nM
